Earlier results in PMC11273449.

Columns and labels:
[1] = system: Influenza A virion (Influenza A/PR/8/34); experiment: cited; settings: 5' hexynyl
[2] = biological target: Spike S1 subunit, BA.1 (SARS-CoV-2 BA.1 (Omicron)) (UniProt P0DTC2); experiment: cited; settings: 5' hexynyl

Sequence	Kd [1] [µM]	Kd [2] [µM]
TTTTTGGCAGGAAGACAAACAGCCAGCGTGACAGCGACGCGTAGGGACCGGCATCCGCGGGTGGTCTGTGGTGCTGT [Influenza A aptamer (particle)]	0.055	–
TTTTTACGCCAAGGTGTCACTCCGTAGGGTTTGGCTCCGGGCCTGGCGTCGGTCGCGAAGCATCTCCTTGGCGT [Aptamer 4 (particle)]	–	0.005
